The values that follow come from patent publication US20240117030A1 (Pfizer, published 2024).

Experiment [1] deals with T1, recombinant human IL-13 (human, UniProt P35225 35-146). Kind of experiment: cell-based or functional assay.
Experiment [2] addresses T1, recombinant human IL-13. Kind of experiment: cell-based or functional assay. The source holds these as a separate data set.
Experiment [3] addresses T2, recombinant human IL-4 (human, UniProt P05112 25-153).
T2 sequence (looked up): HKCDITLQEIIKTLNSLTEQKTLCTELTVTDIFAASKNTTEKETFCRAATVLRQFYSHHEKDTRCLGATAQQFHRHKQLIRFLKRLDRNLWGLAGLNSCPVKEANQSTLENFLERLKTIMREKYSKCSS
As to the kind of experiment: cell-based or functional assay.

In experiment [4] the target is T2, recombinant human IL-4. As to the kind of experiment: cell-based or functional assay. The source holds these as a separate data set.
Experiment [5] has as its target T3, recombinant cynomolgus monkey IL-13 (cynomolgus monkey, UniProt Q0PW92 19-132).
T3 construct: also called Cyno IL-13
Kind of experiment: KinExA, fixed antigen format.
Protocol: (§1) Samples were prepared in PBS containing 0.1% sodium azide and 1.0 mg/ml BSA. The fixed antigen assay method was used to determine binding affinity. […] Data analysis was performed with KinExA Pro software version 4.3.11 (Sapidyne). […] The ‘drift correction’ fitting option was used when responses varied between replicate injections. Two curves were obtained in independent experiments and analyzed using the ‘n-curve analysis’ tool to obtain global best fit values for the KD and active concentration of IL-13 cytokine. The software reports each best fit value along with a 95% confidence interval.

Experiment [6] has as its target T1, recombinant human IL-13. As to the kind of experiment: KinExA, fixed antigen format. (A kinetic exclusion assay measures how much of one partner remains free in solution.)
Protocol: as §1
Experiment [7] addresses T4, recombinant human IL-33 (human, UniProt O95760 112-270, limits assumed).
T4 sequence (looked up): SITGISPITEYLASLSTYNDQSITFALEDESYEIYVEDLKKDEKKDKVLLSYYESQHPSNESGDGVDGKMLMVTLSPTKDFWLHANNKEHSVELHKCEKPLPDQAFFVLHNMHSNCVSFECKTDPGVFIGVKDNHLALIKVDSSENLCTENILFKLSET
Kind of experiment: cell-based or functional assay.

Experiment [8] has as its target T5, IL-33 mm2 (human, UniProt O95760 112-270, limits assumed).
T5 sequence (looked up): T4 sequence (looked up) with C97S, C116S, C121S, C148S
As to the kind of experiment: cell-based or functional assay.

For experiment [9], the target named is T2, recombinant human IL-4. As to the kind of experiment: cell-based or functional assay. This is another data set of the same source.
The target in experiment [10] is T1, recombinant human IL-13. As to the kind of experiment: cell-based or functional assay. The source holds these as a separate data set.
For experiment [11], the target named is T4, recombinant human IL-33. As to the kind of experiment: cell-based or functional assay. This is another data set of the same source.
Experiment [12] has as its target T6, recombinant cynomolgus monkey IL-4 (cynomolgus monkey, UniProt P79339 25-153).
T6 construct: also called Cyno IL-4
T6 sequence (looked up): T2 sequence (looked up) with E26K, V29I, F33L
Kind of experiment: KinExA, fixed antigen format.
Protocol: (§2) Samples were prepared in PBS containing 0.1% sodium azide and 1.0 mg/ml BSA. The fixed antigen assay method was used to determine binding affinity. […] Each trispecific and IL-4 cytokine were equilibrated for at least 72 hours at room temperature, then passed through a flow cell containing Polymethylmethacrylate (PMMA) beads coated with anti-hIL-4 Ab-0002 (Pfizer) that contains the same IL-4 binding domain as the trispecifics. […] Data analysis was performed with KinExA Pro software version 4.3.11 (Sapidyne). […] The ‘drift correction’ fitting option was used when responses varied between replicate injections. Two curves were obtained in independent experiments and analyzed using the ‘n-curve analysis’ tool to obtain global best fit values for the KD and active concentration of IL-4 cytokine. The software reports each best fit value along with a 95% confidence interval.

Experiment [13] addresses T2, recombinant human IL-4. As to the kind of experiment: KinExA, fixed antigen format.
Protocol: as §2
Experiment [14] has as its target T3, recombinant cynomolgus monkey IL-13. Kind of experiment: cell-based or functional assay.
Experiment [15] addresses T1, recombinant human IL-13. Kind of experiment: cell-based or functional assay. The source holds these as a separate data set.
Experiment [16] deals with T6, recombinant cynomolgus monkey IL-4. Kind of experiment: cell-based or functional assay.
Experiment [17] has as its target T2, recombinant human IL-4. As to the kind of experiment: cell-based or functional assay. The source holds these as a separate data set.
Experiment [18] concerns the target T7, human IL-33 (human, UniProt O95760 112-270, limits assumed).
T7 construct: Limits stated for the R&D protein; also called human IL-33 WT; reduced human IL-33
T7 sequence (looked up): T4 sequence (looked up)
Kind of experiment: KinExA solution affinity, fixed antigen format.
Protocol: Samples were prepared in PBS containing 0.1% sodium azide and 1.0 mg/mL bovine serum albumin (BSA). […] The fixed active binding concentrations (ABC) of biotinylated human IL 33 used were 10 pM and 100 pM. Biotinylated human IL-33 wild-type (WT) was reduced with 3 mM Dithiothreitol (DTT) for 2 hours at room temperature before use. The samples were allowed to equilibrate for at least 72 hours at room temperature before passing them through a flow cell that contained the test article anti-IL-33 antibody being evaluated adsorbed to polymethylmethacrylate (PMMA) beads (Sapidyne). […] Data analysis was performed with KinExA Pro software version 4.3.11 (Sapidyne). […] The ‘drift correction’ fitting option was used when responses varied between replicate injections. Two curves were obtained in independent experiments and analyzed using the ‘n-curve analysis’ tool to obtain global best fit values for the KD and active concentration of IL-33 cytokine. The software reports each best fit value along with a 95% confidence interval.

Experiment [19] has as its target T8, human IL-4 (human, UniProt P05112 25-153).
T8 sequence (looked up): T2 sequence (looked up)
As to the kind of experiment: cell-based or functional assay.

Experiment [20] concerns the target T8, human IL-4. As to the kind of experiment: cell-based or functional assay. This is another data set of the same source.

Numbering of substitutions follows the chain as printed. Like-named read-outs stand apart in the source and are kept apart here.

Broadly, the Kd is the equilibrium constant for the complex coming apart.

T1 sequence (P35225 35-146 limits assumed): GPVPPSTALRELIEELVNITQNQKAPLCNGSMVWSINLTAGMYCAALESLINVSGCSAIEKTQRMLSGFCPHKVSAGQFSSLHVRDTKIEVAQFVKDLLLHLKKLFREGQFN
T3 sequence (Q0PW92 entry or part of it limits assumed): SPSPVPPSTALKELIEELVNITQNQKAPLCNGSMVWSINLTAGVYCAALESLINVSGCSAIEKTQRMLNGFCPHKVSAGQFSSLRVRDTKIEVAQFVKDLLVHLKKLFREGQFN

B1: IL13433-1258 (other)
heavy: EVQLVESGGGLVQPGGSLRLSCAASGFTFSSYWMYWVRQAPGKGLEWVAAITPNAGEDYYPESVKGRFTISRDNAKNSLYLQMNSLRAEDTAVYYCARGQYYYTKYSLGYWGQGTLVTVSSASTKGPSVFPLAPSSKSTSGGTAALGCLVKDYFPEPVTVSWNSGALTSGVHTFPAVLQSSGLYSLSSVVTVPSSSLGTQTYICNVNHKPSNTKVDKKVEPKSCRKTHTCPPCPAPEAAGAPSVFLFPPKPKDTLMISRTPEVTCVVVDVSHEDPEVKFNWYVDGVEVHNAKTKPREEQYNSTYRVVSVLTVLHQDWLNGKEYKCKVSNKALPAPIEKTISKAKGQPREPQVYTLPPSREEMTKNQVSLTCLVKGFYPSDIAVEWESNGQPENNYKTTPPVLDSDGSFFLYSRLTVDKSRWQQGNVFSCSVLHEALHSHYTQKSLSLSPGK
chain 1: DIQMTQSPSSLSASVGDRVTITCKASESVDHFGWSLVHWYQQKPGKAPKLLIYRASNLESGVPSRFSGSGSGTDFTLTISSLQPEDFATYYCQQSNEDPWTFGGGTKVEIKRTVAAPSVFIFPPSDEQLKSGTASVVCLLNNFYPREAKVQWKVDNALQSGNSQESVTEQDSKDSTYSLSSTLTLSKADYEKHKVYACEVTHQGLSSPVTKSFNRGECGGGGSEVTLRESGPALVKPTQTLTLTCTFSGFSLSNFGEGLSWIRQPPGKGLEWLAHIYWDDDKRYNPSLKSRLTISKDTSRNQVVLTMTNMDPVDTATYYCARRETVFYWYFDVWGQGTTVTVSSASTKGPSVFPLAPSSKSTSGGTAALGCLVKDYFPEPVTVSWNSGALTSGVHTFPAVLQSSGLYSLSSVVTVPSSSLGTQTYICNVNHKPSNTKVDKKVEPKSCEKTHTCPPCPAPEAAGAPSVFLFPPKPKDTLMISRTPEVTCVVVDVSHEDPEVKFNWYVDGVEVHNAKTKPREEQYNSTYRVVSVLTVLHQDWLNGKEYKCKVSNKALPAPIEKTISKAKGQPREPQVYTLPPSREEMTKNQVSLTCEVKGFYPSDIAVEWESNGQPENNYKTTPPVLDSDGSFFLYSKLTVDKSRWQQGNVFSCSVLHEALHSHYTQKSLSLSPGK
light 1: DIQMTQSPSSLSASVGDRVTITCRASQPIHNHLDWYQQKPGKAPKLLIYFGKNLQEGVPSRFSGSGSGTDFTLTISSLQPEDFATYYCFQYKKGWSFGGGTKVEIKRTVAAPSVFIFPPSDEQLKSGTASVVCLLNNFYPREAKVQWKVDNALQSGNSQESVTEQDSKDSTYSLSSTLTLSKADYEKHKVYACEVTHQGLSSPVTKSFNRGEC
light 2: DIQMTQSPSSLSASVGDRVTITCRASQSVDEEGDSYMNWYQQKPGKAPKLLIYAASNLESGVPSRFSGSGSGTDFTLTISSLQPEDFATYYCQQSNKDPPTFGGGTKVEIKRTVAAPSVFIFPPSDEQLKSGTASVVCLLNNFYPREAKVQWKVDNALQSGNSQESVTEQDSKDSTYSLSSTLTLSKADYEKHKVYACEVTHQGLSSPVTKSFNRGEC
chain 2: EVQLVESGGGLVQPGGSLRLSCAASGFTFSSYAMSWVRQAPGKGLEWVASISSGDTTYYPDSVKGRFTISRDNAKNSLYLQMNSLRAEDTAVYYCARNEGYYFGLTLWGQGTLVTVSSASTKGPSVFPLAPSSKSTSGGTAALGCLVKDYFPEPVTVSWNSGALTSGVHTFPAVLQSSGLYSLSSVVTVPSSSLGTQTYICNVNHKPSNTKVDKKVEPKSC
notes: Trispecific Tri-Fab-Fc, dual cell, EE/RR, LS; Chains in order: SFab HC(3), DFab LC(1)-HC(2), SFab LC(3), DFab LC(2), modified Fd(1)
On to B1, for which the “IC50 (median), IL-13 induced CD23 expression on human monocytes” value in [1] and in experiment [2] was 0.0117 nM each time. The “IC50 (median), IL-4 induced CD23 expression on human monocytes” value in [3] and in experiment [4] was 0.01 nM each time. For the same molecule, the Kd was found to be 0.000866 nM in experiment [5], 0.000612 nM in experiment [6], 0.00296 nM in [12] and 0.000477 nM in experiment [13]. Moreover, the “IC50 (mean), HEK-Blue IL-33 SEAP” value in experiment [7] amounted to 0.0134 nM. Further, in experiment [8], the “IC50 (mean), IFNg Whole Blood (IL-12 plus IL-33 mm2-Cys)” value is 0.0125 nM. The “IL-4 Induced CD23 Expression, potency of cytokine neutralization” value in [9] stood at 0.013 nM. Besides, in experiment [10], the “IL-13 Induced CD23 Expression, potency of cytokine neutralization” value was 0.00935 nM. For the same molecule, the “IL-33 WT Activation of SEAP Reporter Cells, potency of cytokine neutralization” value in experiment [11] worked out at 0.013 nM. The “IC50 (median), CD23 expression, Human Whole Blood” value in [14] came to 0.0505 nM; in [15], 0.0161 nM; in experiment [16] it was 0.0321 nM; in experiment [17], 0.0232 nM. Further, the “IC50 (median), CD23 expression, Peripheral Blood Monocytes” value was determined as 0.0528 nM in experiment [14], 0.0117 nM in experiment [15], 0.0136 nM in experiment [16] and 0.01 nM in experiment [17].

B2: IL33-0726 (antibody, human IgG1, kappa, V domains shown)
VH: EVQLVESGGGLVQPGGSLRLSCAASGFTFSSYWMYWVRQAPGKGLEWVAAITPNAGEDYYPESVKGRFTISRDNAKNSLYLQMNSLRAEDTAVYYCARGQYYYTKYSLGYWGQGTLVTVSS
VL: DIQMTQSPSSLSASVGDRVTITCRASQPIHNHLDWYQQKPGKAPKLLIYFGKNLQEGVPSRFSGSGSGTDFTLTISSLQPEDFATYYCFQYKKGWSFGGGTKVEIKR
notes: also called IL13433-0726; IL33-0726 IgG
For the molecule B2, in experiment [18], the “fold higher affinity relative to the IL33-0352 benchmark antibody” value was about 3 fold and the “fold higher affinity than IL33-0232 antibody” value is about 14 fold.

B3: IL4-1284 (antibody, human IgG1, kappa, V domains shown)
VH: QVTLRESGPALVKPTQTLTLTCTFSGFSLSTSGMGVSWIRQPPGKGLEWLAHIYWDDDKRYNPSLKSRLTISKDTSRNQVVLTMTNMDPVDTATYYCARRETVFYWYFDVWGRGTPVTVSS
VL: DIVMTQSPDSLAVSLGERATINCKASQSVDYDGDSYMNWYQQKPGQPPKLLIYAASNLESGVPDRFSGSGSGTDFTLTISSLQAEDVAVYYCQQSNEDPPRFGGGTKVEIKR
Consider B3, for which, in experiment [19], the “pSTAT6 IC50 [pM]” value was determined as 125 pM. Also, in experiment [20], the “pSTAT6: Fold bioactivity relative to IL4-1284” value is 1 fold, the “pSTAT6: Fold bioactivity relative to IL4-1285” value was 0.6 fold and the “pSTAT6 IC50 [pM]” value turned out to be 125 pM.
